Test results from doi:10.1101/2020.12.15.408237.

Target: Staphylococcus aureus FrmB (Staphylococcus aureus Newman)
Experiment: SEC

Staphylococcus aureus FrmB (enzyme)
stoichiometry N: 2
